The results in this text go back to article PMC3662962.

Substrate in this data set: O=[N+]([O-])c1ccc(OP(=O)(O)O)cc1
In words: purified protein. The following applies: pH 8.0; 37.0 °C.

Usually Km stands for the substrate concentration at which the rate is half of its maximum. As a reminder, the Vmax is the rate approached at saturating substrate.

B1: Rv1364c (Mycobacterium tuberculosis H37Rv) (protein)
chain: MAAEMDWDKTVGAAEDVRRIFEHIPAILVGLEGPDHRFVAVNAAYRGFSPLLDTVGQPAREVYPELEGQQIYEMLDRVYQTGEPQSGSEWRLQTDYDGSGVEERYFDFVVTPRRRADGSIEGVQLIVDDVTSRVRARQAAEARVEELSERYRNVRDSATVMQQALLAASVPVVPGADIAAEYLVAAEDTAAGGDWFDALALGDRLVLVVGDVVGHGVEAAAVMSQLRTALRMQISAGYTVVEALEAVDRFHKQVPGSKSATMCVGSLDFTSGEFQYCTAGHPPPLLVTADASARYVEPTGAGPLGSGTGFPVRSEVLNIGDAILFYTDGLIERPGRPLEASTAEFADLAASIASGSGGFVLDAPARPIDRLCSDTLELLLRSTGYNDDVTLLAMQRRAPTPPLHITLDATINAARTVRAQLREWLAEIGADHSDIADIVHAISEFVENAVEHGYATDVSKGIVVAAALAGDGNVRASVIDRGQWKDHRDGARGRGRGLAMAEALVSEARIMHGAGGTTATLTHRLSRPARFVTDTMVRRAAFQQTIDSEFVSLVESGRIVVRGDVDSTTAATLDRQIAVESRSGIAPVTIDLSAVTHLGSAGVGALAAACDRARKQGTECVLVAPPGSPAHHVLSLVQLPVVGADTEDIFAQE
In the case of B1, the Km is 3.61 ± 0.58 mM and the Vmax turned out to be 0.09 µmol/min/mg.
